Measurements reported in patent publication US20060228349A1.

What was measured:
[1] = target: ADDL fibril preparation (Aβ1-42 fibrils); test: solution equilibrium titration, free IgG by ELISA, GraFit; SE 0.12
[2] = target: Aβ-derived diffusible ligands (synthetic ADDLs), soluble oligomers of amyloid β1-42; test: solution equilibrium titration, free IgG by ELISA, GraFit; SE 0.042
[3] = target: Aβ1-20 peptide; test: solution equilibrium titration, free IgG by ELISA, GraFit; SE 3.53
[4] = target: amyloid beta (1-40) peptide; test: solution equilibrium titration, free IgG by ELISA, GraFit; SE 0.62

Sequence of Aβ1-20 peptide (peptide, as listed by the source): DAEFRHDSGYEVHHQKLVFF

Which Kd [1] does the source give for monoclonal antibody WO-2 here?
The Kd was 1.15 nM.

And the Kd [2]?
Its Kd is 0.57 nM.

And the Kd [3]?
The Kd was 19.3 nM.

And the Kd [4]?
Its Kd is 6.15 nM.
